Patent US20220064329A1 (Novo Nordisk, published 2022)

Target: T1, recombinant human activated Factor VII (FVIIa) (human, UniProt P08709 61-212; P08709 213-466, ten glutamate residues of the Gla domain may be gamma-carboxylated)
T1 construct: chains tethered by a disulfide bond; also called Factor VIIa; rFVIIa
T1 sequence 1: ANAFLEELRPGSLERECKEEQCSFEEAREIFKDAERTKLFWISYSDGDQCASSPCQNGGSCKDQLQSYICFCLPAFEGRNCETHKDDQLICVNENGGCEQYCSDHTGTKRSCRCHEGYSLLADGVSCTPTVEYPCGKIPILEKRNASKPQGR
T1 sequence 2: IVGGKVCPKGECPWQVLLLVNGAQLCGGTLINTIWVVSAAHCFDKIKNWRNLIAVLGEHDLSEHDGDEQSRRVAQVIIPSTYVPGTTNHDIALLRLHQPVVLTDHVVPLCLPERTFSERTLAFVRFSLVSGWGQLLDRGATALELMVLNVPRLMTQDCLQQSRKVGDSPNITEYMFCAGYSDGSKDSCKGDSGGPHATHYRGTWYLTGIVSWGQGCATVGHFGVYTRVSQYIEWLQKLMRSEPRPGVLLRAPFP
Assay: BLI (Fortebio)
Experimental: All steps were performed in running buffer (20 mM HEPES buffer (pH 7.4), 150 mM NaCl, 5 mM CaCl2, 0.03% Tween 20, 1 mg/ml IgG-free BSA) at […] Antibodies were captured on anti-human tips (AHC, Fortebio) for 3 min at a concentration of 10 ug/ml. This was followed by a 3 min incubation to establish a baseline. Following this, association was monitored for 3 min using four different concentrations of VIIa (25 nm, 50 nM, 100 nM, and 200 nM), followed by a 3 mi dissociation. Sensorgrams were analysed using Fortebio data analysis software.

B1: VH SEQ ID NO 626 / VL SEQ ID NO 470 (antibody, IgG4, V domains shown)
VH: QVQLQESGPGLVKPSQTLSLTCTVSGYSISSDSAWSWIRQPPGKGLEWIGYIQYSGSTNYNPSLKSRVTISRDTSKNQFSLKLSSVTAADTAVYYCARSVNYYGNSFAVGPWGQGTLVTVSS
VL: EIVLTQSPATLSLSPGERATLSCRASQGVSDYLHWYQQKPGQAPRLLIKYASQPATGIPARFSGSGSGTDFTLTISSLEPEDFAVYYCQNGHSFPLTFGQGTKLEIK
notes: humanized 11F2; IgG4 S228P/kappa
  Kd: 1.1 nM

B2: VH SEQ ID NO 314 / VL SEQ ID NO 382 (antibody, IgG4, V domains shown)
VH: QVQLQESGPGLVEPSDTLSLTCAVSGYSISSDSAWSWIRQPPGKGLEWIGYIQYSGSTNYNPSLKSRVTMSVDTSKNQFSLKLSSVTALDTAVYYCARSVNYYGNSFAVGPWGQGTLVTVSS
VL: EIVLTQSPATLSLSPGERATLSCRASQGLSDYLHWYQQKPGEAPRLLIKYASQPATGIPARFSGSGSGTDFTLTISSLEPEDFAVYYCQNGHSFPLTFGQGTKLEIK
notes: as for B1
  Kd: 27 nM

B3: VH SEQ ID NO 314 / VL SEQ ID NO 502 (antibody, IgG4, V domains shown)
VH: QVQLQESGPGLVEPSDTLSLTCAVSGYSISSDSAWSWIRQPPGKGLEWIGYIQYSGSTNYNPSLKSRVTMSVDTSKNQFSLKLSSVTALDTAVYYCARSVNYYGNSFAVGPWGQGTLVTVSS
VL: EIVLTQSPATLSLSPGERATLSCRASQGVSDYLHWYQQKPGQAPRLLIKYTSQPATGIPARFSGSGSGTDFTLTISSLEPEDFAVYYCQNGHSFPLTFGQGTKLEIK
notes: as for B1
  Kd: 25 nM

B4: VH SEQ ID NO 314 / VL SEQ ID NO 334 (antibody, IgG4, V domains shown)
VH: QVQLQESGPGLVEPSDTLSLTCAVSGYSISSDSAWSWIRQPPGKGLEWIGYIQYSGSTNYNPSLKSRVTMSVDTSKNQFSLKLSSVTALDTAVYYCARSVNYYGNSFAVGPWGQGTLVTVSS
VL: EIVLTQSPATLSLSPGERATLSCRASQGISDYLHWYQQKPGQAPRLLIKYASQPATGIPARFSGSGSGTDFTLTISSLEPEDFAVYYCQNGHSFPLTFGQGTKLEIK
notes: as for B1
  Kd: 21 nM

B5: VH SEQ ID NO 514 / VL SEQ ID NO 318 (antibody, IgG4, V domains shown)
VH: QVQLQESGPGLVEPSDTLSLTCAVSGYSITSDSAWSWIRQPPGKKLEWIGYIQYSGSTNYNPSLKSRVTMSRDTSKNQFSLKLSSVTALDTAVYYCARSVNYYGNSFAVGYWGQGTLVTVSS
VL: EIVLTQSPATLSLSPGERATLSCRASQGISDYLHWYQQKPGEAPRLLIKYTSQPATGIPARFSGSGSGTDFTLTISSLEPEDFAVYYCQNGHSFPLTFGQGTKLEIK
notes: as for B1
  Kd: 0.99 nM

B6: VH SEQ ID NO 514 / VL SEQ ID NO 334 (antibody, IgG4, V domains shown)
VH: QVQLQESGPGLVEPSDTLSLTCAVSGYSITSDSAWSWIRQPPGKKLEWIGYIQYSGSTNYNPSLKSRVTMSRDTSKNQFSLKLSSVTALDTAVYYCARSVNYYGNSFAVGYWGQGTLVTVSS
VL: EIVLTQSPATLSLSPGERATLSCRASQGISDYLHWYQQKPGQAPRLLIKYASQPATGIPARFSGSGSGTDFTLTISSLEPEDFAVYYCQNGHSFPLTFGQGTKLEIK
notes: as for B1
  Kd: 1.1 nM

B7: VH SEQ ID NO 314 / VL SEQ ID NO 494 (antibody, IgG4, V domains shown)
VH: QVQLQESGPGLVEPSDTLSLTCAVSGYSISSDSAWSWIRQPPGKGLEWIGYIQYSGSTNYNPSLKSRVTMSVDTSKNQFSLKLSSVTALDTAVYYCARSVNYYGNSFAVGPWGQGTLVTVSS
VL: EIVLTQSPATLSLSPGERATLSCRASQGVSDYLHWYQQKPGQAPRLLIKYASQPATGIPARFSGSGSGTDFTLTISSLEPEDVAVYYCQNGHSFPLTFGQGTKLEIK
notes: as for B1
  Kd: 28 nM

B8: VH SEQ ID NO 314 / VL SEQ ID NO 342 (antibody, IgG4, V domains shown)
VH: QVQLQESGPGLVEPSDTLSLTCAVSGYSISSDSAWSWIRQPPGKGLEWIGYIQYSGSTNYNPSLKSRVTMSVDTSKNQFSLKLSSVTALDTAVYYCARSVNYYGNSFAVGPWGQGTLVTVSS
VL: EIVLTQSPATLSLSPGERATLSCRASQGISDYLHWYQQKPGQAPRLLIKYTSQPATGIPARFSGSGSGRDFTLTISSLEPEDFAVYYCQNGHSFPLTFGAGTKLELK
notes: as for B1
  Kd: 28 nM

B9: VH SEQ ID NO 314 / VL SEQ ID NO 358 (antibody, IgG4, V domains shown)
VH: QVQLQESGPGLVEPSDTLSLTCAVSGYSISSDSAWSWIRQPPGKGLEWIGYIQYSGSTNYNPSLKSRVTMSVDTSKNQFSLKLSSVTALDTAVYYCARSVNYYGNSFAVGPWGQGTLVTVSS
VL: EIVLTQSPATLSLSPGERATLSCRASQGISDYLHWYQQKPGQAPRLLIKYTSQPATGIPARFSGSGSGTDFTLTISSLEPEDFAVYYCQNGHSFPLTFGQGTKLEIK
notes: as for B1
  Kd: 18 nM

B10: VH SEQ ID NO 314 / VL SEQ ID NO 478 (antibody, IgG4, V domains shown)
VH: QVQLQESGPGLVEPSDTLSLTCAVSGYSISSDSAWSWIRQPPGKGLEWIGYIQYSGSTNYNPSLKSRVTMSVDTSKNQFSLKLSSVTALDTAVYYCARSVNYYGNSFAVGPWGQGTLVTVSS
VL: EIVLTQSPATLSLSPGERATLSCRASQGVSDYLHWYQQKPGQAPRLLIKYASQPATGIPARFSGSGSGTDFTLTISSLEPEDFAVYYCQQGHSFPLTFGQGTKLEIK
notes: as for B1
  Kd: 64 nM

B11: VH SEQ ID NO 314 / VL SEQ ID NO 318 (antibody, IgG4, V domains shown)
VH: QVQLQESGPGLVEPSDTLSLTCAVSGYSISSDSAWSWIRQPPGKGLEWIGYIQYSGSTNYNPSLKSRVTMSVDTSKNQFSLKLSSVTALDTAVYYCARSVNYYGNSFAVGPWGQGTLVTVSS
VL: EIVLTQSPATLSLSPGERATLSCRASQGISDYLHWYQQKPGEAPRLLIKYTSQPATGIPARFSGSGSGTDFTLTISSLEPEDFAVYYCQNGHSFPLTFGQGTKLEIK
notes: as for B1
  Kd: 17 nM

B12: VH SEQ ID NO 514 / VL SEQ ID NO 310 (antibody, IgG4, V domains shown)
VH: QVQLQESGPGLVEPSDTLSLTCAVSGYSITSDSAWSWIRQPPGKKLEWIGYIQYSGSTNYNPSLKSRVTMSRDTSKNQFSLKLSSVTALDTAVYYCARSVNYYGNSFAVGYWGQGTLVTVSS
VL: EIVLTQSPATLSLSPGERATLSCRASQGISDYLAWYQQKPGQAPRLLIKYASQPATGIPARFSGSGSGTDFTLTISSLEPEDFAVYYCQNGHSFPLTFGQGTKLEIK
notes: as for B1
  Kd: 3.1 nM

B13: VH SEQ ID NO 314 / VL SEQ ID NO 326 (antibody, IgG4, V domains shown)
VH: QVQLQESGPGLVEPSDTLSLTCAVSGYSISSDSAWSWIRQPPGKGLEWIGYIQYSGSTNYNPSLKSRVTMSVDTSKNQFSLKLSSVTALDTAVYYCARSVNYYGNSFAVGPWGQGTLVTVSS
VL: EIVLTQSPATLSLSPGERATLSCRASQGISDYLHWYQQKPGEAPRLLIKYTSQPATGIPARFSGSGSGTDFTLTISSLEPEDFGVYYCQNGHSFPLTFGAGTKLELK
notes: as for B1
  Kd: 15 nM

B14: VH SEQ ID NO 314 / VL SEQ ID NO 486 (antibody, IgG4, V domains shown)
VH: QVQLQESGPGLVEPSDTLSLTCAVSGYSISSDSAWSWIRQPPGKGLEWIGYIQYSGSTNYNPSLKSRVTMSVDTSKNQFSLKLSSVTALDTAVYYCARSVNYYGNSFAVGPWGQGTLVTVSS
VL: EIVLTQSPATLSLSPGERATLSCRASQGVSDYLHWYQQKPGQAPRLLIKYASQPATGIPARFSGSGSGTDFTLTISSLEPEDFGVYYCQNGHSFPLTFGQGTKLEIK
notes: as for B1
  Kd: 22 nM

B15: VH SEQ ID NO 314 / VL SEQ ID NO 454 (antibody, IgG4, V domains shown)
VH: QVQLQESGPGLVEPSDTLSLTCAVSGYSISSDSAWSWIRQPPGKGLEWIGYIQYSGSTNYNPSLKSRVTMSVDTSKNQFSLKLSSVTALDTAVYYCARSVNYYGNSFAVGPWGQGTLVTVSS
VL: EIVLTQSPATLSLSPGERATLSCRASQGVSDYLHWYQQKPGEAPRLLIKYASQPATGIPARFSGSGSGTDFTLTISSLEPEDFAVYYCQNGHSFPLTFGQGTKLEIK
notes: as for B1
  Kd: 32 nM

B16: VH SEQ ID NO 314 / VL SEQ ID NO 350 (antibody, IgG4, V domains shown)
VH: QVQLQESGPGLVEPSDTLSLTCAVSGYSISSDSAWSWIRQPPGKGLEWIGYIQYSGSTNYNPSLKSRVTMSVDTSKNQFSLKLSSVTALDTAVYYCARSVNYYGNSFAVGPWGQGTLVTVSS
VL: EIVLTQSPATLSLSPGERATLSCRASQGISDYLHWYQQKPGQAPRLLIKYTSQPATGIPARFSGSGSGTDFTLTISSLEPEDFAVYYCQNGHSFPLTFGAGTKLELK
notes: as for B1
  Kd: 19 nM

B17: VH SEQ ID NO 314 / VL SEQ ID NO 462 (antibody, IgG4, V domains shown)
VH: QVQLQESGPGLVEPSDTLSLTCAVSGYSISSDSAWSWIRQPPGKGLEWIGYIQYSGSTNYNPSLKSRVTMSVDTSKNQFSLKLSSVTALDTAVYYCARSVNYYGNSFAVGPWGQGTLVTVSS
VL: EIVLTQSPATLSLSPGERATLSCRASQGVSDYLHWYQQKPGQAPRLLIKYASQPATGIPARFSGSGSGTDFTLTISSLEPEDFAVYYCQNGHSFPLTFGAGTKLEIK
notes: as for B1
  Kd: 26 nM

B18: VH SEQ ID NO 314 / VL SEQ ID NO 470 (antibody, IgG4, V domains shown)
VH: QVQLQESGPGLVEPSDTLSLTCAVSGYSISSDSAWSWIRQPPGKGLEWIGYIQYSGSTNYNPSLKSRVTMSVDTSKNQFSLKLSSVTALDTAVYYCARSVNYYGNSFAVGPWGQGTLVTVSS
VL: EIVLTQSPATLSLSPGERATLSCRASQGVSDYLHWYQQKPGQAPRLLIKYASQPATGIPARFSGSGSGTDFTLTISSLEPEDFAVYYCQNGHSFPLTFGQGTKLEIK
notes: as for B1
  Kd: 20 nM

B19: VH SEQ ID NO 514 / VL SEQ ID NO 350 (antibody, IgG4, V domains shown)
VH: QVQLQESGPGLVEPSDTLSLTCAVSGYSITSDSAWSWIRQPPGKKLEWIGYIQYSGSTNYNPSLKSRVTMSRDTSKNQFSLKLSSVTALDTAVYYCARSVNYYGNSFAVGYWGQGTLVTVSS
VL: EIVLTQSPATLSLSPGERATLSCRASQGISDYLHWYQQKPGQAPRLLIKYTSQPATGIPARFSGSGSGTDFTLTISSLEPEDFAVYYCQNGHSFPLTFGAGTKLELK
notes: as for B1
  Kd: 0.94 nM
